Assay results as given in paper PMC9482650, “Quantitative fragmentomics allow affinity mapping of interactomes” (Nature Communications, 2022).

What was measured:
Experiment in all cases: holdup assay
Design in all cases: key: below the threshold = too weak to quantify, mostly under pKd 3.1 to 4
DVL3, Q92997 = biological target: T1, DVL3, Q92997
T1 sequence (Q92997 244-331, limits assumed, looked up): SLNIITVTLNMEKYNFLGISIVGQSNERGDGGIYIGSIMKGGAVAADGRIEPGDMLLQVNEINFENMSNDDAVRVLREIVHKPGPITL

NOS1, P29475 = biological target: NOS1, P29475
NOS1, P29475, sequence (P29475 9-101): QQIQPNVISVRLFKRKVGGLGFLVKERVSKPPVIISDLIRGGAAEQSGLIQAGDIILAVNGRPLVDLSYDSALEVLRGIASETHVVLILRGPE

PARD3_3, Q8TEW0 = biological target: PARD3_3, Q8TEW0
PARD3_3, Q8TEW0, sequence (Q8TEW0 582-685): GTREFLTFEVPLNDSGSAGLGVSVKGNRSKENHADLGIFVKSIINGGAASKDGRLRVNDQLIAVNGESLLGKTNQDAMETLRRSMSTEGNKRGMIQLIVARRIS

FRMPD1, Q5SYB0 = biological target: T2, FRMPD1, Q5SYB0
T2 sequence (Q5SYB0 52-145, limits assumed, looked up): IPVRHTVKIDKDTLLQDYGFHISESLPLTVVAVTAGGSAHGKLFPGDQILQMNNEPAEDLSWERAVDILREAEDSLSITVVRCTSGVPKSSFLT

Inadl_10, Q8NI35 = biological target: Inadl_10, Q8NI35
Inadl_10, Q8NI35, sequence (Q8NI35 1673-1763): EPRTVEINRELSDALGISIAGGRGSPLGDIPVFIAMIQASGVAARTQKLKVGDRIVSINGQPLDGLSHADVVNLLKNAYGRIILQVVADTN

NHERF4_2, Q86UT5 = biological target: NHERF4_2, Q86UT5
NHERF4_2, Q86UT5, sequence (Q86UT5 220-308): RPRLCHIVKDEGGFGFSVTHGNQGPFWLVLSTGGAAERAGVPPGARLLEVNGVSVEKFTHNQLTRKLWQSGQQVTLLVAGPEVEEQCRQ

HTRA2, O43464 = biological target: HTRA2, O43464
HTRA2, O43464, sequence (O43464 355-458): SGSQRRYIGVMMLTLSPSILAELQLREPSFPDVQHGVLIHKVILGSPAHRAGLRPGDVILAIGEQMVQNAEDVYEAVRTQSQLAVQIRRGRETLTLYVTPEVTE

MAGI1_2, Q96QZ7 = biological target: MAGI1_2, Q96QZ7
MAGI1_2, Q96QZ7, sequence (Q96QZ7 456-580): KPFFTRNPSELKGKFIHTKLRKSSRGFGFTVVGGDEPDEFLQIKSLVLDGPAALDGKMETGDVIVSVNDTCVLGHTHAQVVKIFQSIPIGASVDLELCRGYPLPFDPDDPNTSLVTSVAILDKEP

GRIP2_6, Q9C0E4 = biological target: GRIP2_6, Q9C0E4
GRIP2_6, Q9C0E4, sequence (Q9C0E4 648-740): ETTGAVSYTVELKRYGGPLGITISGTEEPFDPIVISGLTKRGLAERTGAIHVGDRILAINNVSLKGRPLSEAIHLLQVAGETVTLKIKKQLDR

APBA2_2, Q99767 = biological target: T3, APBA2_2, Q99767
T3 sequence (Q99767 654-744, limits assumed, looked up): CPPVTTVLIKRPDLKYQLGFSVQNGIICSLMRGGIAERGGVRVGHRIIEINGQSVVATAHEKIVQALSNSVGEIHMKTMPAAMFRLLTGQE

LNX2_2, Q8N448 = biological target: T4, LNX2_2, Q8N448
T4 sequence (Q8N448 334-432, limits assumed, looked up): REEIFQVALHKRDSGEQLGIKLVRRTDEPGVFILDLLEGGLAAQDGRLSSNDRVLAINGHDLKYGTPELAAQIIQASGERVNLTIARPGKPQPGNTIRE

DLG2_3, Q15700 = biological target: DLG2_3, Q15700
MPP2, Q14168 = biological target: T5, MPP2, Q14168
T5 sequence (Q14168 180-250, limits assumed, looked up): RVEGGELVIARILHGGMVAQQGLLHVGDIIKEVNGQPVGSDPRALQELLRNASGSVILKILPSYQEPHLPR

LDB3, O75112 = biological target: LDB3, O75112
LDB3, O75112, sequence (O75112 1-94): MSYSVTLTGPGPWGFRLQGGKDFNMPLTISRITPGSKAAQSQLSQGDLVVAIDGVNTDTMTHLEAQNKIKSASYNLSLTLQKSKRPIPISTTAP

DFNB31_2, Q9P202 = biological target: T6, DFNB31_2, Q9P202
T6 sequence (Q9P202 274-371, limits assumed, looked up): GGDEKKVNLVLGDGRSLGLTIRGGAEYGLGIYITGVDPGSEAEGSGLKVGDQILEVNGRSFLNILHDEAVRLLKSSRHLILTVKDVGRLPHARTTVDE

LIN7C, Q9NUP9 = biological target: T7, LIN7C, Q9NUP9
T7 sequence (Q9NUP9 88-185, limits assumed, looked up): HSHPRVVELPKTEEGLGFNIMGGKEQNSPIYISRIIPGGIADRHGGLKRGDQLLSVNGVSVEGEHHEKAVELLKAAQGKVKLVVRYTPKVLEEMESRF

GORASP1, Q9BQQ3 = biological target: GORASP1, Q9BQQ3
GORASP1, Q9BQQ3, sequence (Q9BQQ3 1-208): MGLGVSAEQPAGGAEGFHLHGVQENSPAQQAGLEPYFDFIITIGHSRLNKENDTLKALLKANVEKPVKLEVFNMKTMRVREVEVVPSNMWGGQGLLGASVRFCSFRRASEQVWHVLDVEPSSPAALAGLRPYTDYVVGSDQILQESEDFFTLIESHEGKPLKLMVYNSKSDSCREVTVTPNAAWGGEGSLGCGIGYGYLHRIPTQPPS

TX1BP3, O14907 = biological target: T8, TX1BP3, O14907
T8 sequence (O14907 10-122, limits assumed, looked up): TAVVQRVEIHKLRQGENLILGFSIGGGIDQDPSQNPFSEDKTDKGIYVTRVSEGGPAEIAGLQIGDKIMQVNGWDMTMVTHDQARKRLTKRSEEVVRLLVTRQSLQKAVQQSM

GRIP2_7, Q9C0E4 = biological target: GRIP2_7, Q9C0E4
GRIP2_7, Q9C0E4, sequence (Q9C0E4 934-1023): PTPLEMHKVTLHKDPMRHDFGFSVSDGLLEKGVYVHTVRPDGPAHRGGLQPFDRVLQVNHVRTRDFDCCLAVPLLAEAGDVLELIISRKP

GRIP2_5, Q9C0E4 = biological target: GRIP2_5, Q9C0E4
GRIP2_5, Q9C0E4, sequence (Q9C0E4 544-642): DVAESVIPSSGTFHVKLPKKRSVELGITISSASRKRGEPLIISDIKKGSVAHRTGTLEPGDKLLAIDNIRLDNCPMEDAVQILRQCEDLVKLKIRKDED

SIPA1L2, Q9P2F8 = biological target: T9, SIPA1L2, Q9P2F8
T9 sequence (Q9P2F8 945-1036, limits assumed, looked up): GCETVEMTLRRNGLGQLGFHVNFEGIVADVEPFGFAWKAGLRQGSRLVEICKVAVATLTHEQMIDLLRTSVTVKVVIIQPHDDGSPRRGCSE

DLG3_1, Q92796 = biological target: T10, DLG3_1, Q92796
T10 sequence (Q92796 125-227, limits assumed, looked up): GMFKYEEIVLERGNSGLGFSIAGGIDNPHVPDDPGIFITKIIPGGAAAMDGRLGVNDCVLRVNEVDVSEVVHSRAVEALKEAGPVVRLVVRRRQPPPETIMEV

DLG1_1, Q12959 = biological target: DLG1_1, Q12959
SCRIB_3, Q14160 = biological target: SCRIB_3, Q14160
SCRIB_3, Q14160, sequence (Q14160 999-1103): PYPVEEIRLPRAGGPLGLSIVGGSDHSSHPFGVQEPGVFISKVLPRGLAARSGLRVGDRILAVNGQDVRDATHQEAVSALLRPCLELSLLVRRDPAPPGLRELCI

GRIP2_4, Q9C0E4 = biological target: GRIP2_4, Q9C0E4
GRIP2_4, Q9C0E4, sequence (Q9C0E4 446-548): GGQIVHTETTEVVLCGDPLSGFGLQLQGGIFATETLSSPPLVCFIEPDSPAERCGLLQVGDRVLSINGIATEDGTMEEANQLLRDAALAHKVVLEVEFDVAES

MPDZ_10, O75970 = biological target: T11, MPDZ_10, O75970
T11 sequence (O75970 1624-1722, limits assumed, looked up): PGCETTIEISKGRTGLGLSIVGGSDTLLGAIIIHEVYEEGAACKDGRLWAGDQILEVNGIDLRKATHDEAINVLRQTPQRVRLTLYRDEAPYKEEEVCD

[1] = plain residues with an end cap or a label only (N-terminal biotin on a linker: ahx)
[2] = plain residues with an end cap or a label only (N-terminal biotin on a linker: ttds)

TIVSWPGTFL [LNX1, Q8TBB1]
pKd (DVL3, Q92997; [1]): below the threshold
pKd (NOS1, P29475; [1]): below the threshold
pKd (PARD3_3, Q8TEW0; [1]): below the threshold
pKd (FRMPD1, Q5SYB0; [1]): below the threshold
pKd (Inadl_10, Q8NI35; [1]): 4.25
pKd (NHERF4_2, Q86UT5; [1]): below the threshold
pKd (HTRA2, O43464; [1]): 3.94
pKd (MAGI1_2, Q96QZ7; [1]): below the threshold
pKd (GRIP2_6, Q9C0E4; [1]): below the threshold
pKd (APBA2_2, Q99767; [1]): below the threshold
pKd (LNX2_2, Q8N448; [1]): below the threshold
pKd (DLG2_3, Q15700; [1]): below the threshold
pKd (MPP2, Q14168; [1]): below the threshold
pKd (LDB3, O75112; [1]): below the threshold
pKd (DFNB31_2, Q9P202; [1]): below the threshold
pKd (LIN7C, Q9NUP9; [1]): 3.47
pKd (GORASP1, Q9BQQ3; [1]): below the threshold
pKd (TX1BP3, O14907; [1]): 4.39
pKd (GRIP2_7, Q9C0E4; [1]): below the threshold
pKd (GRIP2_5, Q9C0E4; [1]): below the threshold
pKd (SIPA1L2, Q9P2F8; [1]): below the threshold
pKd (DLG3_1, Q92796; [1]): below the threshold
pKd (DLG1_1, Q12959; [1]): below the threshold
pKd (SCRIB_3, Q14160; [1]): 4.29
pKd (GRIP2_4, Q9C0E4; [1]): below the threshold
pKd (MPDZ_10, O75970; [1]): 3.6

QFQYAKESYI [TAGAP, Q8N103]
pKd (DVL3, Q92997; [2]): below the threshold
pKd (NOS1, P29475; [2]): 3.82
pKd (PARD3_3, Q8TEW0; [2]): 3.91
pKd (FRMPD1, Q5SYB0; [2]): below the threshold
pKd (Inadl_10, Q8NI35; [2]): below the threshold
pKd (NHERF4_2, Q86UT5; [2]): below the threshold
pKd (HTRA2, O43464; [2]): below the threshold
pKd (MAGI1_2, Q96QZ7; [2]): below the threshold
pKd (GRIP2_6, Q9C0E4; [2]): below the threshold
pKd (APBA2_2, Q99767; [2]): below the threshold
pKd (LNX2_2, Q8N448; [2]): below the threshold
pKd (DLG2_3, Q15700; [2]): 3.95
pKd (MPP2, Q14168; [2]): below the threshold
pKd (LDB3, O75112; [2]): below the threshold
pKd (DFNB31_2, Q9P202; [2]): 4.74
pKd (LIN7C, Q9NUP9; [2]): 4.21
pKd (GORASP1, Q9BQQ3; [2]): 3.9
pKd (TX1BP3, O14907; [2]): 4.13
pKd (GRIP2_7, Q9C0E4; [2]): below the threshold
pKd (GRIP2_5, Q9C0E4; [2]): below the threshold
pKd (SIPA1L2, Q9P2F8; [2]): below the threshold
pKd (DLG3_1, Q92796; [2]): below the threshold
pKd (DLG1_1, Q12959; [2]): 4.16
pKd (SCRIB_3, Q14160; [2]): 4.67
pKd (GRIP2_4, Q9C0E4; [2]): below the threshold
pKd (MPDZ_10, O75970; [2]): below the threshold
